Results on 1 molecule are retold here after patent US20090163411A1 (BOLDER BIOTECHNOLOGY, published 2009).

The target of this assay is Recombinant Human Vascular Endothelial Growth Factor (rhVEGF) (human, UniProt P15692-4 27-191, limits assumed). The assay can be described thus: cell-based or functional assay.
Sequence of Recombinant Human Vascular Endothelial Growth Factor (rhVEGF) (P15692 other isoform, or with tags, fused parts or gaps limits assumed): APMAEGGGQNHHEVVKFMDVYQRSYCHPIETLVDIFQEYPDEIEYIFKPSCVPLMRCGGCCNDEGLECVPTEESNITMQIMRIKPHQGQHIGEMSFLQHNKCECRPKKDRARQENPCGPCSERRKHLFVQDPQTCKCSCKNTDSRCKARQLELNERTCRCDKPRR

B1: sFlt-1(3) N164C (receptor)
chain: SKLKDPELSLKGTQHIMQAGQTLHLQCRGEAAHKWSLPEMVSKESERLSITKSACGRNGKQFCSTLTLNTAQANHTGFYSCKYLAVPTSKKKETESAIYIFISDTGRPFVEMYSEIPEIIHMTEGRELVIPCRVTSPCITVTLKKFPLDTLIPDGKRIIWDSRKGFIISNATYKEIGLLTCEATVNGHLYKTNYLTHRQTNTIIDVQISTPRPVKLLRGHTLVLNCTATTPLNTRVQMTWSYPDEKNKRASVRRRIDQSNSHANIFYSVLTIDKMQNKDKGLYTCRVRSGPSFKSVNTSVHIYDKAFITVKH
For the molecule B1, the “Ave Ec50's (ng/ml); inhibition of VEGF-stimulated HUVEC proliferation, BrdU Cell Proliferation assay” value is 103 ng/mL.
